The values below come from patent US20230340090A1 (published 2023).

The target of this assay is T1, TDP-215 peptide GDVMDVFI (human).
T1 construct: same ELISA method as for the biotinylated 15-mers
T1 peptide: GDVMDVFI
In words: indirect ELISA on 8-mer peptide library. As for the experimental part:
Serum-free supernatants were harvested from stable hybridomas. The supernatants containing antibodies of interest were then screened by an indirect ELISA assay to determine epitopes. Epitopes were mapped using a library of TDP-43 15-mer peptides. Briefly, 96-well streptavidin-coated 96-well ELISA plates were incubated with 5 μg/mL of biotinylated 15-mer peptides spanning the amino acids (aa) 199-285 of human TDP-43 with 9 as offset and 6 as overlap. Plates were washed thoroughly with 0.05% Tween-20/PBS and then blocked with 1% bovine serum albumin (BSA) in 0.05% Tween-20/PBS for 1 hour at 37° C. The antibody contained in the hybridoma supernatant was then added at the indicated dilutions, and incubated for 2 hours at 37° C. after which the plates were washed as described previously. An AP-conjugated anti-mouse IgG secondary antibody (Jackson ImmunoResearch Laboratories, United Kingdom) was added at 1/1000 dilution in 0.05% Tween-20/PBS for 1 hour at 37° C. After the final wash, plates were incubated with pNPP (Sigma-Aldrich, Switzerland) an AP substrate solution, and read at 405 nm using an ELISA plate reader (Tecan).
Furthermore, antibodies were tested using an indirect ELISA on a peptide library of 8-mer peptides with 7 an overlap covering the sequence of human TDP-43 from aa 210 to aa 231, using the same ELISA method as describe previously in this section.

B1: ACI-7062-415H10-Ab2 (antibody, IgG3, V domains shown)
VH: DVQLVESGGGLVQPGGSRKLSCAASGFTFSSFGMHWVRQAPEKGLEWVAYISSGSSNIYYTDTVKGRFTISRDNPKNTLFLQMTSLRSEDTAIYYCARSGTTVPFDYWGQGTTLTVSS
VL: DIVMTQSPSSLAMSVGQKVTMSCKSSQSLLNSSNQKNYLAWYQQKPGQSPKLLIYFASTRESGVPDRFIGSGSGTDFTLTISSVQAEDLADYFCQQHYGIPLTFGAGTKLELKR
notes: Mouse hybridoma antibody, IgG3, kappa; also called 415H10B7; clone 17
For the molecule B1, the binding result is reported as “binds”.

B2: ACI-7062-404D6-Ab2 (antibody, IgG3, V domains shown)
VH: QVTLKESGPGILQPSQTLSLTCSFSGFSLSTYGIGVGWIRQPSGKGLEWLAHIWWNDYKYYNTALKSRLTISKDTSNNRVFLKIASVDTADTATYYCARVYGNLYYFDYWGQGTTLTVSS
VL: DVLMTQTPLSLPVSLGDQASISCRSSQSIVHGSGNTYLEWYLQKPGQSPKLLIYKVSNRFSGVPDRFSGSGSGTDFTLRISRVEAEDLGVYYCFQGSHVPTFGAGTKLELKR
notes: Mouse hybridoma antibody, IgG3, kappa; also called 404D6E11; clone 4
Regarding B2, the binding result is “binds”.
